Laboratory results reported in US20030082561.

How the values were obtained:
Experiment in all cases: EMSA
[1] = test system: ZFP Clone 7 (6-finger) (artificial); settings: probe flanks not given; 0.1 mM ZnCl2, 100 mM NaCl, on ice
[2] = test system: ZFP Clone 5 (BCTV L1 6-finger) (artificial); settings: 10 mM Tris-HCl pH 7.5, 100 mM NaCl, 1 mM MgCl2, 0.1 mM ZnCl2, 1 mg/ml BSA, 10% glycerol, poly(dA-dT)2, on ice
[3] = test system: ZFP Clone 6 (6-finger) (artificial); settings: probe flanks not given; 0.1 mM ZnCl2, 100 mM NaCl, on ice

TACGTGGCATTGGGTGCTC (double strand) [Clone 7 target]
Kd [1]: < 3 pM

TATATATATTGGGTGCTTTGGGTGCTCTATATATA (double strand) [L1 19-bp target probe]
Kd [2]: < 3 pM

AGTAAGGTAGGAGATGATA (double strand) [Clone 6 target]
Kd [3]: < 3 pM
